In publication PMC8860610, “The fork protection complex recruits FACT to reorganize nucleosomes during replication” (Nucleic Acids Research, 2022):
One block for each binder: values may come before it.

Experiments:
Conditions in all cases: both partners purified
Spt16 subunit on its own = target: T1, Spt16 subunit on its own (Saccharomyces cerevisiae, UniProt P32558 1-1035); test: pull-down; 1.5 μM GST fusion proteins (Tof1_N, Tof1_M, Tof1_C, Csm3) as bait on glutathione agarose, 3 μM fl FACT or FACT truncations as prey, 90 min at 4°C, washed with buffer G (300 mM NaCl), eluted with glutathione, SDS-PAGE
T1 construct: Spt16, Saccharomyces cerevisiae, without Pob3; also called Spt16 alone; source: yeast strain yBS2, purified by the same strategy as FACT

[1] = target: T2, full-length (fl) FACT (Spt16-Pob3) (Saccharomyces cerevisiae, UniProt P32558 1-1035; Q04636 1-552); test: as above
T2 construct: Spt16, subunit of FACT, Saccharomyces cerevisiae; Pob3, subunit of FACT, Saccharomyces cerevisiae; His-tag cleaved by TEV protease; also called yFACT when together with Nhp6; source: yeast strain yBS2, galactose-induced, purified (HisTrap, TEV cleavage, Q column, Superdex 200)

[2] = target: T2, full-length (fl) FACT (Spt16-Pob3); test: pull-down; 1.5 μM CBP-Csm3Tof1 as bait on Calmodulin Affinity Resin, 3 μM fl FACT as prey, 90 min at 4°C, washed with buffer C (25 mM HEPES-NaOH pH 7.6, 300 mM NaCl, 2 mM CaCl2), eluted with EDTA and EGTA, SDS-PAGE
[3] = target: T3, FACT consisting of Spt16 and GST-tagged Pob3 (Saccharomyces cerevisiae, UniProt P32558 1-1035; Q04636 1-552); test: pull-down; 0.5 μM GST-Pob3Spt16 as bait with 1 μM replisome factor, on ice 30 min, immobilised on glutathione agarose 90 min at 4°C, washed with buffer G (50 mM HEPES-NaOH pH 7.6, 300 mM NaCl, 0.05% NP-40), eluted with glutathione, SDS-PAGE
T3 construct: Spt16, subunit of FACT, Saccharomyces cerevisiae; Pob3, subunit of FACT, Saccharomyces cerevisiae; The methods speak of a His-tag cleaved by TEV protease without telling which subunit carried it; also called GST-Pob3Spt16; GST-tagged Pob3-Spt16; source: yeast strain yBS2, galactose-induced, purified (HisTrap, Q column, Superdex 200)

binding result (Spt16 subunit on its own): binds
binding result [1]: binds
B1: GST-tagged Tof1_C (938-1238 aa) (domain or fragment, Saccharomyces cerevisiae, UniProt P53840 938-1238, looked up)
chain: PSSSYLLRVRSEKDSFSHNEQDGWEGDDDYDYNDPYIVPDDQILSKSDAAYFKDLDNNASDKLKGTKFSKGIARSKKKDKRKRRKGEAKTNLPMFGDQDDERPQTVRERHGVFSKEFISDSEDDEDLMNPIFFENETYMRWLLDKNNGQLTEDRYIQFAKFAAERMNNGGVVTGDYTSLFGGSIPSIESIRATESSSFAPDKSLISLASHVASEMSIFDVNNNNNNQLSDDDVNSESRNSLGSSQPSNSQNMFQSEVYSRKESTKRSLEASAADESDEDEEAIRLFGKKSRVVLSQGDSDD
notes: Tof1, Saccharomyces cerevisiae, residues 938-1238, codon optimized for bacteria; Cloned into a pET GST-His6-TEV vector; no cleavage is described; source: E. coli BL21 (DE3) codon plus RIL, purified (GSTrap, Q column, Superdex 200)

binding result [2]: binds
binding result [3]: binds
B2: Tof1-Csm3 (full-length, CBP-tagged) (complex, Saccharomyces cerevisiae)
chain 1: MSADLQQGTTNAADFSLTVLRARIALLATAIGGPDYTSQIDPPPYKLGDDCLACLKDLKRWFKLVDDQQKRWDVAMAVAEYRILTDDLLPILIDWENKCSLAAKLAKNNPDHEEFRNKAYYDKIALNCLQLLVLMTWPLIVTEQSSSNQITLYGELKKHQLVYKKTILSMESGKVLRAAIRLALDVIKIDRLSRTPRDNMVLKLVLNFFRNVIAIEPGEFTINTKKSMPKKGITSIDTLPPNVSMDDISLNTVISSFHKNKVFGFLLTLTSSLSKEFDQDFINIPLLEIMFYFTKDVNQELLFPRQFETGTHSKVVNKNESSSANNIVTSAGFELSKLLQKEHQMRKNVIKHTSARHSRFGGLLSIQTPDKTRLTVSGSQALVDEKIALQKLDDSKKWNKRIIKKHQSVAAEGLPNSLLNSQTGKAIFFTESNGKHFKEFINNFIDSGFNILLHSVTNYFTTEQDRMVTLEQVEYLLFFAWFVKYQLLRSKIDNSADIKQVSEALKEVTFILVSSLLRSAYDLKNWTVTHAGMIAFNELLNLVSRTKAAQEEDSTDIEFIVSRLFSDERIQLLSNLPKIGSKYSLQFMKSCIELTHSVLKVLEQYSDDKTLVIEGKSRRQKKFNISEGDITKLIEEENVDRDEALDILTSSLRSIEVNFQKVQANYMTEPVIETYINFLERFRELEDDSIKKVFSFFHRVFVQAKEQALLFRFDLIILLREMLSPDGLDRMSRSRKYVSQFSDYFLARLKKRLKKSPAWFVGLLFPPLHNSEVGFYQRYGEYNVLNNESMYAAPASQFKPIPDEEALPPSILLDMKYGVLVSTLLDDGKTELLDQLLKHITHTLDIFKSWLTVNVNAGKETVNPPNEYFTLTGVLNNDPIFKDKDYRALLLLIGYSIPRKINEPCFLPGTVEVSDLTVSCELVKKYLSTPFETPNGLPSSSYLLRVRSEKDSFSHNEQDGWEGDDDYDYNDPYIVPDDQILSKSDAAYFKDLDNNASDKLKGTKFSKGIARSKKKDKRKRRKGEAKTNLPMFGDQDDERPQTVRERHGVFSKEFISDSEDDEDLMNPIFFENETYMRWLLDKNNGQLTEDRYIQFAKFAAERMNNGGVVTGDYTSLFGGSIPSIESIRATESSSFAPDKSLISLASHVASEMSIFDVNNNNNNQLSDDDVNSESRNSLGSSQPSNSQNMFQSEVYSRKESTKRSLEASAADESDEDEEAIRLFGKKSRVVLSQGDSDD
chain 2: MDQDFDSLLLGFNDSDSVQKDPTVPNGLDGSVVDPTIADPTAITARKRRPQVKLTAEKLLSDKGLPYVLKNAHKRIRISSKKNSYDNLSNIIQFYQLWAHELFPKAKFKDFMKICQTVGKTDPVLREYRVSLFRDEMGMSFDVGTRETGQDLERQSPMVEEHVTSAEERPIVADSFAQDKRNVNNVDYDNDEDDDIYHLSYRNRRGRVLDERGNNETVLNNVVPPKEDLDALLKTFRVQGPVGLEENEKKLLLGWLDAHRKMEKGSMTEEDVQLIQSLEEWEMNDIEGQHTHYDLLPGGDEFGVDQDELDAMKEMGF
notes: Tof1, subunit of the fork protection complex, Saccharomyces cerevisiae (1238 aa by the printed truncation limits); Csm3, subunit of the fork protection complex, Saccharomyces cerevisiae; also called CBP-Csm3Tof1; CBP-tagged Csm3-Tof1
